The values below come from patent CN117043185A (NUMAB INNOVATION AG, dated 2023).

The target in the test is T1, human ROR1 expressed on cells (MDA-MB-231, JIMT-1, CLL patient cells) (human, UniProt Q01973 30-937).
T1 construct: whole, on cells; also called hROR1; plasma-membrane human ROR1
Kind of test: flow cytometry on MDA-MB-231 cells. Background: A flow cytometer gives signals particle by particle.

T1 sequence (Q01973 30-937): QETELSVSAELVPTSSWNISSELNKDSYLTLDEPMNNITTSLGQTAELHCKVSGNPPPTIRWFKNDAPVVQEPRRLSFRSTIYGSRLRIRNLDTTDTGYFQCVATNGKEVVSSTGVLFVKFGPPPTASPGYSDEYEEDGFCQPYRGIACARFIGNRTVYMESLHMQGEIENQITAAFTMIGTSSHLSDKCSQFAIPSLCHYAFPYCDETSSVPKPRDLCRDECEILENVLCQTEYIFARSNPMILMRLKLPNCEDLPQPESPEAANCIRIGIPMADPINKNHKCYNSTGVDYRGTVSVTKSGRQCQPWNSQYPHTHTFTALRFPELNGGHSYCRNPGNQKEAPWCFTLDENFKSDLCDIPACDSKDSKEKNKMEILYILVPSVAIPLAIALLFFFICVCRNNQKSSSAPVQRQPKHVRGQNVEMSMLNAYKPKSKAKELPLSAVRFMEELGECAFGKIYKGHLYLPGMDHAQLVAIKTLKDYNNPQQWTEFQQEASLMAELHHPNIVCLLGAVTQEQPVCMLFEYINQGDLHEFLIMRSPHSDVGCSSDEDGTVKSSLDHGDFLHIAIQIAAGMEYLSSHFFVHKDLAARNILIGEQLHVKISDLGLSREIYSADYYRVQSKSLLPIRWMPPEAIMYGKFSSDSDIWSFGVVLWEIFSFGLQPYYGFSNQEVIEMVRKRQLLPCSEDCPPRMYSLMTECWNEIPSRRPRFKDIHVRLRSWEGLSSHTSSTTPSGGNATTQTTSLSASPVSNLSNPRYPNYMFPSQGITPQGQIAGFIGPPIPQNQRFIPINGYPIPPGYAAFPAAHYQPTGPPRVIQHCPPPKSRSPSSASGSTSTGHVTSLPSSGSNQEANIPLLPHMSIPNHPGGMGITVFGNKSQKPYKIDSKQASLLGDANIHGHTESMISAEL

B1: PRO2062 (scFv, V domains shown)
VH: QSQLVESGGGLVQPGGSLRLSCAVSGLSLSRNAMSWVRQAPGKGLEWIGIILTSGSTYYASWAKGRFTISKDNSKNTVYLQMNSLRAEDTAVYFCVRGIASSSLKSFWGQGTLVTVSS
VL: AQQLTQSPSSLSASVGDRVTITCQASQNVWNNNYLSWFQQKPGKPPKLLIVTASTLASGVSSRFSGSGSGTDFTLTISSLQPEDFATYYCAGGFSGEIRAFGTGTKVTVLG
For the molecule B1, the “fold higher apparent binding affinity than reference Fab PRO2213” value is around 3 fold.

B2: PRO2271 (scFv, V domains shown)
VH: QSQLVESGGGLVQPGGSLRLSCAVSGIDLSRNAMSWVRQAPGKGLEWIGIILTSGSTYYASWAKGRFTISKTSTTLDLQMNSLRAEDTAVYFCVRGIASSSLKSFWGQGTLVTVSS
VL: AQQLTQSPSSLSASVGDRVTITCQASQNVWNNNYLSWFQQKPGKPPKLLIVTASTLASGVSSRFSGSGSGTDFTLTISSLQPEDFATYYCAGGFSGEIRAFGTGTKVTVLG
In the case of B2, the “fold lower apparent binding affinity than original scFv PRO2062” value was around 2 fold.

B3: PRO2060 (scFv, V domains shown)
VH: QSQVVESGGGLVQPGGSLRLSCAVSGFDLSSYAVSWVRQAPGKGLEWIGIIYPRANTYYASWAKGRFTISKDNSKNTVYLQMNSLRAEDTAVYFCARDRYDSGAYLYTTYFNLWGQGTLVTVSS
VL: DVQMTQSPSSLSASVGDRVTITCRASENIYSGLAWYQQKPGKPPKLLIYRASTLASGVSSRFSGSGSGTDFTLTISSLQPEDFATYYCQGGYYSSSSTYIAFGTGTKVTVLG
On to B3, for which the “fold lower apparent binding affinity than reference Fab PRO2213” value was around 3 fold.
